As a reminder, the Kd is a measure of binding affinity in units of concentration. In general, stoichiometry N refers to the number of molecules, sites or subunits per partner or assembly.

The values below come from PMC8092592.

Substrate in experiment [1]: CC protein origami tetrahedron TET12SN
Put plainly: ITC; nanobody in the syringe titrated into the cell with TET12SN or a tetrahedron variant (2-5 µM), CC peptide dimer (5-10 µM) or a complex preformed by a first titration; MicroCal VP-ITC, 25 °C; 20 mM sodium phosphate pH 7.0, 150 mM NaCl; independent binding sites model (SEDPHAT), errors by Monte-Carlo.

Experiment [2] has as its target protein origami tetrahedron TET12SN. Put plainly: ITC; nanobody titrated into the CC peptide dimer, the origami protein or a preformed nanobody-target complex; conditions in SI Appendix. (In general: Isothermal titration calorimetry measures the heat released or taken up as one component is titrated into another.)
Substrate in experiment [3]: CC protein origami tetrahedron TET12SN
The experiment can be described thus: ITC; titrations at 18, 25 and 32 °C fitted globally (independent binding sites, temperature-independent heat capacity); parameters reported at 25 °C; 20 mM sodium phosphate pH 7.0, 150 mM NaCl.

Substrate in experiment [4]: CC protein origami tetrahedron variant TET12SN(22CC)
The experiment can be described thus: ITC; nanobody in the syringe titrated into the cell with TET12SN or a tetrahedron variant (2-5 µM), CC peptide dimer (5-10 µM) or a complex preformed by a first titration; MicroCal VP-ITC, 25 °C; 20 mM sodium phosphate pH 7.0, 150 mM NaCl; independent binding sites model (SEDPHAT), errors by Monte-Carlo. The following applies: for stoichiometry N: scale: nanobody per TET12SN(22CC).

Experiment [5] concerns the target preformed Nb28_2-TET12SN(22CC) complex (llama). Described as above.
Experiment [6] has as its target preformed Nb28_2-TET12SN complex (llama). Described as above.
Experiment [7] deals with preformed Nb28_(2)-TET12SN complex (llama). Put plainly: ITC; nanobody titrated into the CC peptide dimer, the origami protein or a preformed nanobody-target complex; conditions in SI Appendix.
The target of experiment [8] is preformed Nb30_2-TET12SN complex (llama). The experiment can be described thus: ITC; titrations at 18, 25 and 32 °C fitted globally (independent binding sites, temperature-independent heat capacity); parameters reported at 25 °C; 20 mM sodium phosphate pH 7.0, 150 mM NaCl.
For experiment [9] the target is unchanged. Put plainly: ITC; nanobody in the syringe titrated into the cell with TET12SN or a tetrahedron variant (2-5 µM), CC peptide dimer (5-10 µM) or a complex preformed by a first titration; MicroCal VP-ITC, 25 °C; 20 mM sodium phosphate pH 7.0, 150 mM NaCl; independent binding sites model (SEDPHAT), errors by Monte-Carlo.
Experiment [10] concerns the target preformed Nb30_(2)-TET12SN complex (llama). Put plainly: ITC; nanobody titrated into the CC peptide dimer, the origami protein or a preformed nanobody-target complex; conditions in SI Appendix.

B1: nanobody Nb49 (VHH)
VHH: QVQLQESGGGLVQPGGSLRLSCIASGRTFNPYGMGWFRQVPGKERTFVSGITWIGGTTYYVNSVKGRFTISRDRAKNTVYLQMNSLKPEDTAVYYCAADKDNTGYNYWGQGTQVTVSS
Take B1: in [1], the stoichiometry N (nanobody per TET12SN (cell:syringe)) was 2. Also, the equilibrium dissociation constant (Kd) in experiment [2] came out at 160 nM.

B2: nanobody Nb30 (VHH)
VHH: QVQLQESGGGLVQPGGSLRLSCAASGSIFSDNDMGWYRQPPGKQREWVATITYDHVTWYADSVKGRFAISRDNAKNTVYLQMNDLKPEDTAVYYCNAVPGRRGSWGQGTQVTVSS
For the molecule B2, the Kd in experiment [3] amounted to 160 nM; in [4] it was 270 nM; in experiment [5] it was 24 nM; in experiment [2], 350 nM; in [7], 26 nM. The stoichiometry N (nanobody per TET12SN (cell:syringe)) in experiment [3] and in experiment [1] was 2 throughout. Besides, the stoichiometry N in experiment [4] turned out to be 2. Further, the stoichiometry N (nanobody per complex (cell:syringe)) in experiment [5] and in experiment [6] was 2 each time.

B3: nanobody Nb34 (VHH)
VHH: QVQLQESGGGLVQPGGSLRLSCAASQFTFSSDWMYWVRQAPGKGLEWVSSISPGGAATAYAASVKGRFTISRDNAKNTLYLQMNSLKSEDTAVYYCSKTRAGTGRGQGTQVTVSS
In the case of B3, in experiment [1], the stoichiometry N (nanobody per TET12SN (cell:syringe)) was 1. In experiment [2], the Kd stood at 21000 nM.

B4: nanobody Nb28 (VHH)
VHH: QVQLQESGGGLVQPGGSLRLSCAAPGFRLDNYVIGWFRQAPGKEREGVSCISSSAGSTYYADSVKGRFTISRDNAKNTVYLQMNSLKPEDTAVYYCATACYSSYVTYWGQGTQVTVSS
With B4, the Kd was 19 nM in experiment [3]; 1.6 nM in experiment [8]; 27 nM in [4]; 2.3 nM in experiment [9]; 39 nM in experiment [2]; 2 nM in experiment [10]. Besides, the stoichiometry N (nanobody per TET12SN (cell:syringe)) in [3] and in [1] was 2 in each case. For the same molecule, the stoichiometry N (nanobody per complex (cell:syringe)) in experiment [8] and in experiment [9] was 2 each time. Also, in [4], the stoichiometry N turned out to be 2.

B5: nanobody Nb26 (VHH)
VHH: QVQLQESGGGLVQAGDSLRLSCAASGRTFSTYPMGWFRQAPGKEREFVAASSSRAYYADSVKGRFTISRNNAKNTVYLQMNSLKPEDTAVYYCVADSSPYYRRYDAAQDYDYWGQGTQVTVSS
Take B5: the stoichiometry N (nanobody per TET12SN (cell:syringe)) in experiment [1] came out at 2. Further, the Kd in [2] is 1.8 nM.

B6: nanobody Nb39 (VHH)
VHH: QVQLQESGGGLVQAGGSLRLSCAASGSIFSINVMGWYRQAPGKQRELLASITSRGSTNYADSVKDRFTISRDNAKNTVYLQINSLKPEDTAVYYCNSRGWTTTRGDYDYWGQGTQVTVSS
Regarding B6, the stoichiometry N (nanobody per TET12SN (cell:syringe)) in [1] was 2. In [2], the KD, high-affinity site was found to be 27 nM and the KD, second binding site was determined as 2000 nM.
